Results: patent US20220064275A1 (SCHOLAR ROCK, published 2022)
Changes are numbered by the printed parent chain.

B1: Ab11 (antibody, IgG4, V domains shown)
VH: EVQLLESGGGLVQPGGSLRLSCAASGFTFRNYAMSWVRQAPGKGLEWVSSISGSGGATYYADSVKGRFTISRDNSKNTLYLQMNSLRAEDTAVYYCARVSSGHWDFDYWGQGTLVTVSS
VL: DIQLTQSPSSLSASVGDRVTITCRASQSISSYLNWYQQKPGKAPKLLIYAASNLQSGVPSRFSGSGSGTDFTLTISSLQPEDFATYYCQQTYTVPLTFGGGTKVEIK
B2: Ab35 (antibody, IgG4, V domains shown)
VH: B1 VH with G102Y, H103L
VL: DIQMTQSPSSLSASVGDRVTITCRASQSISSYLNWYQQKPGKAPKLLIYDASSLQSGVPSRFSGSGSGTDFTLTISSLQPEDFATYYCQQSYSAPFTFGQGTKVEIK
B3: Ab12 (antibody, IgG4, V domains shown)
VH: B1 VH with E1Q, L5V, L11V, G16R, R30S, N31D, S35V, S50A, G56F, A57T
VL: B1 VL
B4: Ab19 (antibody, IgG4, V domains shown)
VH: QVQLVESGGGVVQPGRSLRLSCAASGFTFSSFAMTWVRQAPGKGLEWVSAISGSGAATYFADSVKGRFTISRDNSKNTLYLQMNSLRAEDTAVYYCARVSSGHWDFDEWGQGTLVTVSS
VL: B1 VL
B5: Ab20 (antibody, IgG4, V domains shown)
VH: B1 VH with R30S, N31A, S35T, S50A, A57V, F106Y
VL: B1 VL
B6: Ab4 (antibody, IgG4, V domains shown)
VH: EVQLVESGGGLVQPGGSLRLSCAASGFTFSSYSMNWVRQAPGKGLEWVSYISSSSSTIYYADSVKGRFTISRDNAKNSLYLQMNSLRAEDTAVYYCARGVLDYGDMLDPWGQGTLVTVSS
VL: DIQMTQSPSSLSASVGDRVTITCQASQDITNYLNWYQQKPGKAPKLLIYDASNLETGVPSRFSGSGSGTDFTFTISSLQPEDIATYYCQQADNHPPWTFGGGTKVEIK
notes: also called parental lead antibody of Ab6
B7: Ab32 (antibody, IgG4, V domains shown)
VH: B6 VH with Y32F, S53P, S55A, S56D, S78T, L101W, Y103M
VL: B6 VL
B8: Ab33 (antibody, IgG4, V domains shown)
VH: B6 VH with Y32F, S53P, S55A, S56D, S78T, R98H
VL: B6 VL
B9: Ab29 (antibody, IgG4, V domains shown)
VH: B6 VH with G16R, Y32F, S33A, S53P, S54D, S55A, D62G, A97V, G99A
VL: B6 VL
B10: Ab26 (antibody, IgG4, V domains shown)
VH: B6 VH with Y32F, N35D, S53P, S54D, S55A, S78T
VL: B6 VL
B11: Ab30 (antibody, IgG4, V domains shown)
VH: B6 VH with Y32F, N35D, S53P, S54D, S55A, V100T
VL: B6 VL
B12: Ab24 (antibody, IgG4, V domains shown)
VH: B6 VH with G16R, Y32F, S33A, N35Y, S53P, S54D, S55A
VL: B6 VL
B13: Ab31 (antibody, IgG4, V domains shown)
VH: B6 VH with Y32F, N35D, S53P, S54D, S55A, S78T, G99A
VL: B6 VL
B14: Ab22 (antibody, IgG4, V domains shown)
VH: B6 VH with S30G, Y32F, S52H, S54D, S55A
VL: B6 VL
B15: Ab25 (antibody, V domains shown)
VH: B6 VH with S30G, Y32F, N35D, S53P, S54D, S55A
VL: B6 VL

Molecular target: T1, human GARP-proTGFβ1 complex (human, UniProt Q14392 20-627; P01137 30-390)
T1 construct: also called hGARP-proTGFβ1; hGARP
T1 sequence (Q14392 20-627, chain 1 of 2): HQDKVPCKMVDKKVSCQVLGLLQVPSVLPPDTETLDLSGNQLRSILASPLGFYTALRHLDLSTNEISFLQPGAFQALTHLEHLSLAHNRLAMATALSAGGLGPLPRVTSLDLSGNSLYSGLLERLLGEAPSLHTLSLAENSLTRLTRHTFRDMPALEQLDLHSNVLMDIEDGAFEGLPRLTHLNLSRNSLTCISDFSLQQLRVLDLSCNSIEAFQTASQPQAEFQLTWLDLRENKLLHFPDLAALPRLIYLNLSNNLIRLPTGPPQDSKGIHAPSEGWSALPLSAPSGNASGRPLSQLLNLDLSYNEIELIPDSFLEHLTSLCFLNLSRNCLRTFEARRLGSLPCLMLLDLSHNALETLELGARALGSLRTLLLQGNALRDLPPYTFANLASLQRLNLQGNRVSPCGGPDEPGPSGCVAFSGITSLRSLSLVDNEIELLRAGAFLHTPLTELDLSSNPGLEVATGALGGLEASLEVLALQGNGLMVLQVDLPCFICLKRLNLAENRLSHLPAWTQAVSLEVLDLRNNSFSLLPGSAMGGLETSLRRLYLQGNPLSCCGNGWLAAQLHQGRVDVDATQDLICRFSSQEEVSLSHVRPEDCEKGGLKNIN
T1 sequence (P01137 30-390, chain 2 of 2): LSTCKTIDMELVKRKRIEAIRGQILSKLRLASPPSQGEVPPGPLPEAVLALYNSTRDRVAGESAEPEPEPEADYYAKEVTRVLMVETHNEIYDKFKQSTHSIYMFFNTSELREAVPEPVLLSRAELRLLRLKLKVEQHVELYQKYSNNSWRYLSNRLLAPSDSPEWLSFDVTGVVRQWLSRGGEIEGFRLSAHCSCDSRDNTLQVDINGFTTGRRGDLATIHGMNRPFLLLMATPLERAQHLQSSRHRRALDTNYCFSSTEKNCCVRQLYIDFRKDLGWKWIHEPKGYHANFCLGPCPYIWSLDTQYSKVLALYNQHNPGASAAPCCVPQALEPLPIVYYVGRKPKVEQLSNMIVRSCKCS
Experiment: MSD-SET, solution equilibrium titration
Description: (§1) MSD-SET assays were performed to measure affinities of the antibodies at equilibrium. Briefly, each test antibody was diluted 3-5 fold and samples were mixed with biotinylated antigen in a 48-well dish. The SET samples were equilibrated for 20-24 hours at room temperature. Meanwhile, a capture plate was coated with IgG (20 nM) and incubated overnight at 4° C. or 30 minutes at room temperature, followed by a blocking step with 5% BSA. After the capture plate was washed three times, SET samples were added and incubated for 150 seconds. The plate was washed once to remove unbound complexes. 250 ng/ml SA-Sulfotag was added then washed 3 times. 2× Read Buffer was added, and signals from the labeled bound complexes were read with the use of QuickPlex™ SQ 120 instrument.

Row | Binder | Kd
1 | B1 | 3 nM
2 | B2 | 1.1 nM
3 | B3 | 1.7 nM
4 | B4 | 3.8 nM
5 | B5 | 1.1 nM
6 | B6 | 2.5 nM
7 | B7 | 0.015 nM
8 | B8 | 0.0078 nM
9 | B9 | 0.0055 nM
10 | B10 | 0.014 nM
11 | B11 | 0.022 nM
12 | B12 | 0.019 nM
13 | B13 | 0.019 nM
14 | B14 | 0.027 nM

Molecular target: T2, human LRRC33-proTGFβ1 complex (human, UniProt Q86YC3 19-650; P01137 30-390)
T2 construct: also called hLRRC33-proTGFβ1; hLRRC33
T2 sequence (Q86YC3 other isoform, or with tags, fused parts or gaps limits assumed, chain 1 of 2): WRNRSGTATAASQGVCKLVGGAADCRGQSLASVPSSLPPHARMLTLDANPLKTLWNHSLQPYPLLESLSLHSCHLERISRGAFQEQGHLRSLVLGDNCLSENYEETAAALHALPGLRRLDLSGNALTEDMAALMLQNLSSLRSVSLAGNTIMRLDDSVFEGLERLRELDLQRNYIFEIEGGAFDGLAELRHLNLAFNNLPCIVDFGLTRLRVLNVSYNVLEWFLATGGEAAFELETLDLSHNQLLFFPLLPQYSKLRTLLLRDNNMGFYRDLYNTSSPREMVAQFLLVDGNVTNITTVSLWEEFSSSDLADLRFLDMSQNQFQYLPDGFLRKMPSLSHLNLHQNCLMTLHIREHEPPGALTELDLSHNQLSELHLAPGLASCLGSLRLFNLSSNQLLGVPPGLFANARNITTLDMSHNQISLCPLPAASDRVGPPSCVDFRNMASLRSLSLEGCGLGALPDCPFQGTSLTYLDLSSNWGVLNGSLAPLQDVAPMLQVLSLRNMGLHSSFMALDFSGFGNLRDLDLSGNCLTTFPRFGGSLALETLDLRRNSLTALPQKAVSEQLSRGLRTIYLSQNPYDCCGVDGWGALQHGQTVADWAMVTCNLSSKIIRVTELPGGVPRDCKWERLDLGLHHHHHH
T2 sequence (P01137 30-390 limits assumed, chain 2 of 2): as the sequence (P01137 30-390, chain 2 of 2) above
Experiment: MSD-SET, solution equilibrium titration
Description: as §1

Row | Binder | Kd
15 | B1 | 6.3 nM
16 | B2 | 1.1 nM
17 | B3 | 3.2 nM
18 | B4 | 5.7 nM
19 | B5 | 1.6 nM
20 | B6 | 2.1 nM
21 | B7 | 0.087 nM
22 | B8 | 0.046 nM
23 | B9 | 0.043 nM
24 | B10 | 0.13 nM
25 | B11 | 0.14 nM
26 | B12 | 0.18 nM
27 | B13 | 0.096 nM
28 | B14 | 0.2 nM

Molecular target: T3, human LTBP1-proTGFβ1 complex (human, UniProt Q14766 873-1507)
T3 construct: range 873-1507; biotinylated in Octet and MSD-SET; also called hLTBP1-proTGFβ1; hLTBP1
Experiment: MSD-SET, solution equilibrium titration
Description: as §1

Row | Binder | Kd
29 | B1 | 1.2 nM
30 | B2 | 0.27 nM
31 | B3 | 0.78 nM
32 | B4 | 2.1 nM
33 | B5 | 0.22 nM
34 | B6 | 4.6 nM
35 | B7 | 0.037 nM
36 | B8 | 0.011 nM
37 | B9 | 0.012 nM
38 | B10 | 0.028 nM
39 | B11 | 0.031 nM
40 | B12 | 0.024 nM
41 | B13 | 0.019 nM
42 | B14 | 0.05 nM

Molecular target: T4, human LTBP3-proTGFβ1 complex (human, UniProt Q9NS15 866-1039)
T4 construct: range 866-1039; also called hLTBP3-proTGFβ1; hLTBP3
T4 sequence (Q9NS15 866-1039 limits assumed, chain 1 of 2): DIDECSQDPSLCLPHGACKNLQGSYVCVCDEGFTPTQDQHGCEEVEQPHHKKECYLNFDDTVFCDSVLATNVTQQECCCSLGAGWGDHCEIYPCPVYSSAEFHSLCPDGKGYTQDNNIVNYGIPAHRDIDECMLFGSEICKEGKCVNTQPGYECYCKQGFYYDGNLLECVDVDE
T4 sequence (chain, as listed by the source limits assumed, chain 2 of 2): as the sequence (P01137 30-390, chain 2 of 2) above
Experiment: MSD-SET, solution equilibrium titration
Description: as §1

Row | Binder | Kd
43 | B1 | 1.2 nM
44 | B2 | 0.26 nM
45 | B3 | 0.66 nM
46 | B4 | 2.7 nM
47 | B5 | 0.18 nM
48 | B6 | 5.5 nM
49 | B7 | 0.026 nM
50 | B8 | 0.007 nM
51 | B9 | 0.011 nM
52 | B10 | 0.023 nM
53 | B11 | 0.026 nM
54 | B12 | 0.021 nM
55 | B13 | 0.014 nM
56 | B14 | 0.033 nM

Molecular target: T5, murine GARP-proTGFβ1 complex (mouse, UniProt G3XA59 18-628; P04202 30-390)
T5 construct: Soluble murine complex; also called mGARP-proTGFβ1
Experiment: BLI screen of human and murine LLCs

Row | Binder | binding result
57 | B6 | binds

Molecular target: hLTBP3-proTGFβ1 complex made by transfected cells (cell-based potency assay) (human, UniProt Q9NS15 44-1303; P01137 30-390)
Experiment: cell-based or functional assay

Row | Binder | IC50, reporter cell assay of TGFβ1 activation
58 | B1 | 1.56 nM
59 | B2 | 2.71 nM
60 | B3 | 1.55 nM
61 | B4 | 1.6 nM
62 | B5 | 1.18 nM
63 | B6 | 5.65 nM
64 | B8 | 1.11 nM
65 | B9 | 0.803 nM
66 | B10 | 0.716 nM
67 | B15 | 0.538 nM

Molecular target: hGARP-proTGFβ1 complex on cells (human, UniProt Q14392 20-662; P01137 30-390)
Sequence (Q14392 20-662 limits assumed, chain 1 of 2): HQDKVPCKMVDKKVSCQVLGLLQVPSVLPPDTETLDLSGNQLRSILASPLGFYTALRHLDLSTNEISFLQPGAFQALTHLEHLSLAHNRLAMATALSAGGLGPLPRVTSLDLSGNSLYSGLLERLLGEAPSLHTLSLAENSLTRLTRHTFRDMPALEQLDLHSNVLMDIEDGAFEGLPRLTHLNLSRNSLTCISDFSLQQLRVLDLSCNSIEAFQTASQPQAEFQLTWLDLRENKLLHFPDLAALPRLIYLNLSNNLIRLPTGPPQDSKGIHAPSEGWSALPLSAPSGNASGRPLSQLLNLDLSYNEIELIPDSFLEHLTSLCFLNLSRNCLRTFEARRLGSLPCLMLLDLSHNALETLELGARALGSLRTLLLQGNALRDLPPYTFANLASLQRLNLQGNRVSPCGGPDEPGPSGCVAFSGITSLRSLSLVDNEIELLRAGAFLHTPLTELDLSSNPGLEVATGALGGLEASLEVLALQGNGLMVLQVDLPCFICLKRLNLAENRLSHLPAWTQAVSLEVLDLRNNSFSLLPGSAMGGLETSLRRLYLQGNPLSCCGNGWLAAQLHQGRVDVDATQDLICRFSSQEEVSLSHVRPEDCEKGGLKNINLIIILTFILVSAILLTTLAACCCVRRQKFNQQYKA
Sequence (P01137 30-390 limits assumed, chain 2 of 2): as the sequence (P01137 30-390, chain 2 of 2) above
Experiment: cell-based or functional assay

Row | Binder | IC50, reporter cell assay of TGFβ1 activation
68 | B1 | 0.79 nM
69 | B2 | 3.71 nM
70 | B3 | 1.08 nM
71 | B4 | 1.34 nM
72 | B5 | 0.387 nM
73 | B6 | 0.822 nM
74 | B8 | 0.198 nM
75 | B9 | 0.264 nM
76 | B10 | 0.262 nM
77 | B15 | 0.442 nM

Molecular target: hLTBP1-proTGFβ1 complex made by transfected cells (cell-based potency assay) (human, UniProt Q14766 347-1721; P01137 30-390)
Sequence (Q14766 347-1721, chain 1 of 2): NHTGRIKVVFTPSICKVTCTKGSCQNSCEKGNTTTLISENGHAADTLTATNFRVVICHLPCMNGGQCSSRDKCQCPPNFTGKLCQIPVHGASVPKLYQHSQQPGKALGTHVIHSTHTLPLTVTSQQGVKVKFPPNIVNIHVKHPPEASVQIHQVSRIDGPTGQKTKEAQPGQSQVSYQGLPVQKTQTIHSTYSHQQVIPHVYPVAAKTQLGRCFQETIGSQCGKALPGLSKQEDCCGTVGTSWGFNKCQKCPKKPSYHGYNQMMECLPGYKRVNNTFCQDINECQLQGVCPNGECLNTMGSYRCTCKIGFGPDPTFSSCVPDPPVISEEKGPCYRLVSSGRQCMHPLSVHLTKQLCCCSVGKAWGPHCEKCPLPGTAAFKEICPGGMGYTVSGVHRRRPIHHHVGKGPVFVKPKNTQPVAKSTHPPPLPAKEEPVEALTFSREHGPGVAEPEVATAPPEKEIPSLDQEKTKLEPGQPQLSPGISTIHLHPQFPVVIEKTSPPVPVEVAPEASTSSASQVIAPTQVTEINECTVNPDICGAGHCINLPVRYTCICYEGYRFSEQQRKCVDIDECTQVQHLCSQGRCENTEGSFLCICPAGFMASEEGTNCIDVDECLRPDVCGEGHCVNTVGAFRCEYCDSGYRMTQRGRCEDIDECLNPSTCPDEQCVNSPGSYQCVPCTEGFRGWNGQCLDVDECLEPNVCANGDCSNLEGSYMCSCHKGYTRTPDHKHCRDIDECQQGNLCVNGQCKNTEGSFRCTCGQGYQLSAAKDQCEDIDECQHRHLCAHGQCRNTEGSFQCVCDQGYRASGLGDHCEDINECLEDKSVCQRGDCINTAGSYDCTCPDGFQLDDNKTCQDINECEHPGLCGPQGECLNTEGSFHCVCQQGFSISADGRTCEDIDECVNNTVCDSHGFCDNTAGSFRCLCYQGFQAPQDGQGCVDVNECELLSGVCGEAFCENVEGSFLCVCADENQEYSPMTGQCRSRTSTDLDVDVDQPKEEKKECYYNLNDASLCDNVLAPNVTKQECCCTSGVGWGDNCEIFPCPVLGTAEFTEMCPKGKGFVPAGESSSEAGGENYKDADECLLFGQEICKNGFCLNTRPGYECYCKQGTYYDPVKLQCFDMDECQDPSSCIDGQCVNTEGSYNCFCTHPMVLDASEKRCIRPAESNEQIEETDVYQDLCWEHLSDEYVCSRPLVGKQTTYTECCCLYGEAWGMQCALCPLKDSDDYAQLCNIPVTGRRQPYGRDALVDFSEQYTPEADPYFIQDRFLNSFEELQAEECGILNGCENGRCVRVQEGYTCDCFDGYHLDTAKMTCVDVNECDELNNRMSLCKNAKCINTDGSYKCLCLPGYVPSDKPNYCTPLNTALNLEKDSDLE
Sequence (P01137 30-390, chain 2 of 2): as the sequence (P01137 30-390, chain 2 of 2) above
Experiment: cell-based or functional assay

Row | Binder | IC50, reporter cell assay of TGFβ1 activation
78 | B1 | 2.95 nM
79 | B2 | 6.25 nM
80 | B3 | 3.79 nM
81 | B4 | 1.66 nM
82 | B5 | 1.85 nM
83 | B6 | 5.22 nM
84 | B8 | 1.56 nM
85 | B9 | 0.471 nM
86 | B10 | 0.713 nM
87 | B15 | 6.08 nM

Molecular target: hLRRC33-proTGFβ1 complex on cells (human, UniProt Q86YC3 19-692; P01137 30-390)
Sequence (Q86YC3 19-692 limits assumed, chain 1 of 2): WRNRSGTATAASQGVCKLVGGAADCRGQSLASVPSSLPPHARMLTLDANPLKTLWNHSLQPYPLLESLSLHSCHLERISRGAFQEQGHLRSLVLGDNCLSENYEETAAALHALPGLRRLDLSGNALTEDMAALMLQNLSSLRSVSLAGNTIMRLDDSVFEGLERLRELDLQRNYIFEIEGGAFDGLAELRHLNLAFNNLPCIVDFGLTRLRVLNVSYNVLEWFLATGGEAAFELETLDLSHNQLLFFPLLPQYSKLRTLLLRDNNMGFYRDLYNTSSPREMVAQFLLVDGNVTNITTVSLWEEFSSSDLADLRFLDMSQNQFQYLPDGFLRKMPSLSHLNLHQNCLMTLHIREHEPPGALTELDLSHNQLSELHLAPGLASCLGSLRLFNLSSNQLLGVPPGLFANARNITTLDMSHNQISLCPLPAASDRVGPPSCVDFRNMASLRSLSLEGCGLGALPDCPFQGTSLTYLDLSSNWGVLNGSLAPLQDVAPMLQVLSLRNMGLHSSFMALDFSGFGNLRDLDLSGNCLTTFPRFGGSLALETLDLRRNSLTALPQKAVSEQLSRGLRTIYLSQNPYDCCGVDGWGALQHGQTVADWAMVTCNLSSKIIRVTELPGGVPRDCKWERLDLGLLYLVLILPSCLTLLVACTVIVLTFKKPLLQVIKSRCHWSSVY
Sequence (P01137 30-390 limits assumed, chain 2 of 2): as the sequence (P01137 30-390, chain 2 of 2) above
Experiment: cell-based or functional assay

Row | Binder | IC50, reporter cell assay of TGFβ1 activation
88 | B1 | 1.27 nM
89 | B2 | 5.37 nM
90 | B3 | 2.43 nM
91 | B4 | 0.401 nM
92 | B5 | 1.35 nM
93 | B6 | 3.5 nM
94 | B8 | 0.738 nM
95 | B9 | 0.458 nM
96 | B10 | 0.341 nM
97 | B15 | 0.653 nM

Molecular target: T1, human GARP-proTGFβ1 complex
Experiment: BLI (Octet)

Row | Binder | Kd
98 | B1 | 0.842 nM
99 | B2 | 7.37 nM
100 | B3 | 7.01 nM
101 | B4 | 11.2 nM
102 | B5 | 0.884 nM
103 | B7 | 0.496 nM
104 | B8 | 0.265 nM
105 | B9 | 0.307 nM
106 | B10 | 0.625 nM
107 | B11 | 0.833 nM
108 | B15 | 0.488 nM
109 | B12 | 0.665 nM
110 | B13 | 0.581 nM
111 | B14 | 0.974 nM

Molecular target: T2, human LRRC33-proTGFβ1 complex
Experiment: BLI (Octet)

Row | Binder | Kd
112 | B1 | 0.555 nM
113 | B2 | 0.545 nM
114 | B3 | 0.775 nM
115 | B4 | 0.692 nM
116 | B5 | 0.545 nM
117 | B7 | 0.698 nM
118 | B8 | 0.339 nM
119 | B9 | 0.302 nM
120 | B10 | 0.36 nM
121 | B11 | 0.535 nM
122 | B15 | 0.409 nM
123 | B12 | 0.41 nM
124 | B13 | 0.41 nM
125 | B14 | 0.415 nM

Molecular target: T3, human LTBP1-proTGFβ1 complex
Experiment: BLI (Octet)

Row | Binder | Kd
126 | B1 | 0.167 nM
127 | B2 | 0.159 nM
128 | B3 | 0.157 nM
129 | B4 | 0.189 nM
130 | B5 | 0.192 nM
131 | B7 | 0.269 nM
132 | B8 | 0.179 nM
133 | B9 | 0.189 nM
134 | B10 | 0.221 nM
135 | B11 | 0.332 nM
136 | B15 | 0.217 nM
137 | B12 | 0.246 nM
138 | B13 | 0.236 nM
139 | B14 | 0.318 nM

Molecular target: T4, human LTBP3-proTGFβ1 complex
Experiment: BLI (Octet)

Row | Binder | Kd
140 | B1 | 0.154 nM
141 | B2 | 0.169 nM
142 | B3 | 0.183 nM
143 | B4 | 0.156 nM
144 | B5 | 0.131 nM
145 | B7 | 0.215 nM
146 | B8 | 0.111 nM
147 | B9 | 0.121 nM
148 | B10 | 0.173 nM
149 | B11 | 0.261 nM
150 | B15 | 0.152 nM
151 | B12 | 0.198 nM
152 | B13 | 0.181 nM
153 | B14 | 0.329 nM
